The target of this assay is TCR on the membrane of A2b T cells (rat). Nature of the assay: acceptor-photobleaching FRET; distance is between Rho on the peptide and FITC on the anti-TCR antibody.

Experimental findings from patent US20090270312A1, “HIV-I GP41 FUSION PEPTIDES FOR IMMUNOMODULALTION” (priority 2005, published 2009) are described below.

B1: FP (full length) conjugated to Rhodamine (peptide)
peptide: AVGIGALFLGFLGAAGSTMGARSMTLTVQARQL
modifications: not checked
Regarding B1, the donor-acceptor distance inferred from FRET is less than 50 Å.
